In PMC5095587:

Target: ferredoxin isoform 2 from Arabidopsis thaliana (Arabidopsis thaliana) (UniProt P16972)
Test: NMR titration; 15N HSQC of labelled ferredoxin with purified FusA added at varying stoichiometry up to 1:1; buffer with 0.1% LDAO, sodium phosphate; 600 MHz

Substance “FusA_(1043) Δ20 (FusA from P. atrosepticum SCRI1043 lacking the 20 amino-acid N-terminal signal sequence) (from UniProt Q6CZW5 21-704) (receptor)” has a stoichiometry N of 1.
